{"source": "patent US20260152527A1", "about": "(SIGHTSTREAM BIOTHERAPEUTICS, published 2026)", "assay_in_all_cases": "cell-based or functional assay", "key": {"[1]": {"target": "T1, human recombinant MC4R (CHO-K1/Gα15 stable cell line, GenScript) (human, UniProt P32245 1-332)", "T1 sequence (P32245 whole entry)": "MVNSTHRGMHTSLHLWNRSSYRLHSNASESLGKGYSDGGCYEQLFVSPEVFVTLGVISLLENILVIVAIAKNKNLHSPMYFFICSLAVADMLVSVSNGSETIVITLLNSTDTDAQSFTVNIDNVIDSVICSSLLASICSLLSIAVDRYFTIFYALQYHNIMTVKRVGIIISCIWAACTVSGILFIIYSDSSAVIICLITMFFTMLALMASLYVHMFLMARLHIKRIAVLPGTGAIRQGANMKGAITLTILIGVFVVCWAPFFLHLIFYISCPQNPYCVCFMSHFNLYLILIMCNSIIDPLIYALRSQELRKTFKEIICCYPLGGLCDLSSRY"}, "[2]": {"target": "T2, human recombinant MC5R (CHO-K1/Ga15 stable cell line, GenScript) (human, UniProt P33032 1-325)", "T2 sequence (P33032 whole entry)": "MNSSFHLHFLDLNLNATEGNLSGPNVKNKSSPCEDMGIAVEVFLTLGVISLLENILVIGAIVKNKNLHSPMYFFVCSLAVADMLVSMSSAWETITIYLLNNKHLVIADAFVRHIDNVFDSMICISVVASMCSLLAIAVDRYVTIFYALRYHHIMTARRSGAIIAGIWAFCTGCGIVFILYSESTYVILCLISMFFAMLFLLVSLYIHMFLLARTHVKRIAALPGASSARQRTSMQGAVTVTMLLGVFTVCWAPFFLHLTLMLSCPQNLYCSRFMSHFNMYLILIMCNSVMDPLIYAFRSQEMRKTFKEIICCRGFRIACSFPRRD"}, "[3]": {"target": "T3, human recombinant MC1R (CHO-K1 stable cell line, GenScript) (human, UniProt Q01726 1-317)", "T3 sequence (Q01726 whole entry)": "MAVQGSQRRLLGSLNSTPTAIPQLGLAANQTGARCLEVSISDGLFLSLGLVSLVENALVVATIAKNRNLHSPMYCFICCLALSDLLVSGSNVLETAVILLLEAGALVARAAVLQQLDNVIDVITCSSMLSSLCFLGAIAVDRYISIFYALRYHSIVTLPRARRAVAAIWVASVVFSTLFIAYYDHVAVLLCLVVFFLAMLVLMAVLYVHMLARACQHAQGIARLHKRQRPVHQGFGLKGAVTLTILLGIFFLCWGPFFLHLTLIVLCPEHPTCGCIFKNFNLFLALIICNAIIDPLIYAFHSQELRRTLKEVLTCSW"}, "[4]": {"target": "T1, human recombinant MC4R (CHO-K1/Gα15 …)", "remark": "listed apart in the source"}, "[5]": {"target": "T2, human recombinant MC5R (CHO-K1/Ga15 …)", "remark": "listed apart in the source"}, "[6]": {"target": "T3, human recombinant MC1R (CHO-K1 stable …)", "remark": "listed apart in the source"}, "[7]": {"target": "human recombinant MC3R (CHO-K1/Gα15 stable cell line, GenScript) (human, UniProt P41968 1-323)", "sequence (P41968 whole entry)": "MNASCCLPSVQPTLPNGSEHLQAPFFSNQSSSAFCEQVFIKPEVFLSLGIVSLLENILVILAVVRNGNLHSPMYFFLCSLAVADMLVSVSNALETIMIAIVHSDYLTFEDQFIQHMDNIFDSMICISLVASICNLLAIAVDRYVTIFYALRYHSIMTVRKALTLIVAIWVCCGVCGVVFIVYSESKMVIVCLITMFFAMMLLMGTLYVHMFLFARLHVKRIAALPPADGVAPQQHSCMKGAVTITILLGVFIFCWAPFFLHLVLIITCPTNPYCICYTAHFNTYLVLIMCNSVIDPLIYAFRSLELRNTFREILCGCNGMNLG"}}, "note": "Starred links: 1 amine or outer side, 2 acyl side, 3 side chain; linkers in the order of their positions; H or OH if unused. Positions of bridges follow the written chain, without caps; N, C: chain ends. Non-standard residues stand in square brackets, D forms with d. Primed or numbered codes have the meaning given here. *: point of attachment. HyPA = 3,5-dihydroxyphenylacetic acid (N-terminal cap), O=C(Cc1cc(O)cc(O)c1)*; MoPA = (3-methoxyphenyl)acetic acid (N-terminal cap), COc1cccc(CC(=O)*)c1; dTyr(Me) = O-methyl-D-tyrosine, COc1ccc(C[C@@H](N[*:1])C(=O)[*:2])cc1; Phe(OCH3) = O-methyl-tyrosine, COc1ccc(C[C@H](N[*:1])C(=O)[*:2])cc1; Hgln = homoglutamine, NC(=O)CCC[C@H](N[*:1])C(=O)[*:2]; Benzoyl(3,5-(OH)2) = O=C(c1cc(O)cc(O)c1)*; Lys(N3) = [N-]=[N+]=NCCCC[C@H](N)C(=O)O; Orn(N3) = [N-]=[N+]=NCCC[C@H](N)C(=O)O; dPhe(4-F) = N[C@H](Cc1ccc(F)cc1)C(=O)O; PEG8′ = polyethylene glycol-8; Hpra = C#CCC[C@H](N)C(=O)O; Nle = CCCC[C@H](N)C(=O)O; Octanoyl = CCCCCCCC(=O)*; Pra = C#CC[C@H](N)C(=O)O", "data": [{"binder": "{Benzoyl(3,5-(OH)2)}-[Nle][Lys(N3)]H[dPhe(4-F)]RW[Pra][Hgln]-NH2 (triazole 2-7; not fully specified; printed as HyBA-Nle-[Lys(N3)-His-Dphe(4-F)-Arg-Trp-Pra]-Hgln-NH2)", "note": "[KR-071]", "values": [{"measurement": "MC4R IC50", "setting": "[1]", "value": 103, "unit": "nM"}, {"measurement": "MC5R IC50", "setting": "[2]", "value": 73.9, "unit": "nM"}, {"measurement": "MC1R IC50", "setting": "[3]", "value": 0.0023, "unit": "nM"}, {"measurement": "EC50(nM)-MC4R", "setting": "[4]", "value": 103, "unit": "nM"}, {"measurement": "EC50(nM)-MC5R", "setting": "[5]", "value": 73.9, "unit": "nM"}, {"measurement": "EC50(nM)-MC1R", "setting": "[6]", "value": 0.0023, "unit": "nM"}]}, {"binder": "Ac-SYSMEHFRWGK-NH2", "note": "[KR-006]", "values": [{"measurement": "MC4R IC50", "setting": "[1]", "value": 80.9, "unit": "nM"}, {"measurement": "MC5R IC50", "setting": "[2]", "value": 122, "unit": "nM"}, {"measurement": "MC1R IC50", "setting": "[3]", "value": 0.11, "unit": "nM"}, {"measurement": "MC3R IC50", "setting": "[7]", "value": 224, "unit": "nM"}]}, {"binder": "{MoPA-MoPA}-[Nle][Lys(N3)]H[dF]RW[Pra]K-NH2 (triazole 2-7; not fully specified; printed as MoPA-MoPA-Nle-[Lys(N3)-His-DPhe-Arg-Trp-Pra]-Lys-NH2)", "note": "[KR-063]", "values": [{"measurement": "MC4R IC50", "setting": "[1]", "value": 67.1, "unit": "nM"}, {"measurement": "MC5R IC50", "setting": "[2]", "value": 99.6, "unit": "nM"}, {"measurement": "MC1R IC50", "setting": "[3]", "value": 0.05, "unit": "nM"}, {"measurement": "MC3R IC50", "setting": "[7]", "value": 62.8, "unit": "nM"}]}, {"binder": "Ac-[Nle][Lys(N3)]H[dTyr(Me)]RW[Pra]K-NH2 (triazole 2-7; not fully specified; printed as Ac-Nle-[Lys(N3)-His-DTyr(Me)-Arg-Trp-Pra]-Lys-NH2)", "note": "[KR-058]", "values": [{"measurement": "MC4R IC50", "setting": "[1]", "value": 122, "unit": "nM"}, {"measurement": "MC5R IC50", "setting": "[2]", "value": 195, "unit": "nM"}, {"measurement": "MC1R IC50", "setting": "[3]", "value": 2.68, "unit": "nM"}, {"measurement": "MC3R IC50", "setting": "[7]", "value": "> 50000", "unit": "nM"}]}, {"binder": "HyPA-[Nle][Lys(N3)]H[dF]RW[Pra]K-NH2 (triazole 2-7; not fully specified; printed as HyPA-Nle-[Lys(N3)-His-DPhe-Arg-Trp-Pra]-Lys-NH2)", "note": "[KR-062]", "values": [{"measurement": "MC4R IC50", "setting": "[1]", "value": 44.4, "unit": "nM"}, {"measurement": "MC5R IC50", "setting": "[2]", "value": 167, "unit": "nM"}, {"measurement": "MC1R IC50", "setting": "[3]", "value": 0.03, "unit": "nM"}, {"measurement": "MC3R IC50", "setting": "[7]", "value": 13, "unit": "nM"}]}, {"binder": "Ac-[Nle][Lys(N3)]H[dPhe(4-F)]RW[Pra]-NH2 (triazole 2-7)", "note": "[KR-049]", "values": [{"measurement": "MC4R IC50", "setting": "[1]", "value": 16.1, "unit": "nM"}, {"measurement": "MC5R IC50", "setting": "[2]", "value": 25.2, "unit": "nM"}, {"measurement": "MC1R IC50", "setting": "[3]", "value": 0.019, "unit": "nM"}, {"measurement": "EC50(nM)-MC4R", "setting": "[4]", "value": 16.1, "unit": "nM"}, {"measurement": "EC50(nM)-MC5R", "setting": "[5]", "value": 25.2, "unit": "nM"}, {"measurement": "EC50(nM)-MC1R", "setting": "[6]", "value": 0.019, "unit": "nM"}]}, {"binder": "Ac-[Nle][Orn(N3)]H[dF]RW[Hpra]K-NH2 (triazole 2-7; not fully specified; printed as Ac-Nle-[Orn(N3)-His-DPhe-Arg-Trp-Hpra]-Lys-NH2)", "note": "[KR-068]", "values": [{"measurement": "MC4R IC50", "setting": "[1]", "value": 21.8, "unit": "nM"}, {"measurement": "MC5R IC50", "setting": "[2]", "value": 40.4, "unit": "nM"}, {"measurement": "MC1R IC50", "setting": "[3]", "value": 0.04, "unit": "nM"}, {"measurement": "MC3R IC50", "setting": "[7]", "value": 27.6, "unit": "nM"}]}, {"binder": "Ac-[Nle][Lys(N3)]H[dF]RW[Pra]-NH2 (bridge 2-7; not fully specified (bridges); printed as Ac-Nle-[Lys(N3)-His-DPhe-Arg-Trp-Pra]-NH2)", "note": "[KR-009]", "values": [{"measurement": "MC4R IC50", "setting": "[1]", "value": 45.7, "unit": "nM"}, {"measurement": "MC5R IC50", "setting": "[2]", "value": 140, "unit": "nM"}, {"measurement": "MC1R IC50", "setting": "[3]", "value": 0.0109, "unit": "nM"}, {"measurement": "EC50(nM)-MC4R", "setting": "[4]", "value": 45.7, "unit": "nM"}, {"measurement": "EC50(nM)-MC5R", "setting": "[5]", "value": 140, "unit": "nM"}, {"measurement": "EC50(nM)-MC1R", "setting": "[6]", "value": 0.011, "unit": "nM"}]}, {"binder": "{Octanoyl-PEG8′}-GGSYSMEHFRWGKPV-NH2", "note": "[KR-017]", "values": [{"measurement": "MC4R IC50", "setting": "[1]", "value": 139, "unit": "nM"}, {"measurement": "MC5R IC50", "setting": "[2]", "value": 210, "unit": "nM"}, {"measurement": "MC1R IC50", "setting": "[3]", "value": 0.77, "unit": "nM"}, {"measurement": "MC3R IC50", "setting": "[7]", "value": 310, "unit": "nM"}]}, {"binder": "Ac-[Lys(N3)]EHFRWG[Pra]-NH2 (triazole 1-8)", "note": "[KR-010]", "values": [{"measurement": "MC4R IC50", "setting": "[1]", "value": 452, "unit": "nM"}, {"measurement": "MC5R IC50", "setting": "[2]", "value": "> 10000", "unit": "nM"}, {"measurement": "MC1R IC50", "setting": "[3]", "value": 170, "unit": "nM"}, {"measurement": "MC3R IC50", "setting": "[7]", "value": 13600, "unit": "nM"}]}, {"binder": "Ac-[Nle][Lys(N3)][Phe(OCH3)][dF]RW[Pra]K-NH2 (triazole 2-7; not fully specified; printed as Ac-Nle-[Lys(N3)-Phe(OCH3)-DPhe-Arg-Trp-Pra]-Lys-NH2)", "note": "[KR-061]", "values": [{"measurement": "MC4R IC50", "setting": "[1]", "value": 101, "unit": "nM"}, {"measurement": "MC5R IC50", "setting": "[2]", "value": 150, "unit": "nM"}, {"measurement": "MC1R IC50", "setting": "[3]", "value": 28, "unit": "nM"}, {"measurement": "MC3R IC50", "setting": "[7]", "value": 51.1, "unit": "nM"}]}, {"binder": "Ac-[Nle][Pra]H[dF]RW[Lys(N3)]K-NH2 (triazole 2-7; not fully specified; printed as Ac-Nle-[Pra-His-DPhe-Arg-Trp-Lys(N3)]-Lys-NH2)", "note": "[KR-067]", "values": [{"measurement": "MC4R IC50", "setting": "[1]", "value": 28.7, "unit": "nM"}, {"measurement": "MC5R IC50", "setting": "[2]", "value": 79.7, "unit": "nM"}, {"measurement": "MC1R IC50", "setting": "[3]", "value": 0.11, "unit": "nM"}, {"measurement": "MC3R IC50", "setting": "[7]", "value": 66.2, "unit": "nM"}]}]}
